Measurements reported in the supplement of paper PMC12042874.
± gives the uncertainty stated by the source.

Assay: amyloid nucleation score (Sup35N fusion, yeast selection) (log enrichment); library NNK2; higher = more nucleation; inactive = no reads after selection
Procedure, shortened: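 Output and input plasmid inserts were sequenced by Illumina after psi-negative yeast carrying Sup35N fused to peptides of 20 random codons had been induced 24 hours with 100 μM copper sulfate and grown 7 days at 30°C on medium lacking adenine and uracil. The nucleation score is the DiMSum log enrichment of output over input reads, centred on the mode score of non-aggregating sequences. Sequences with under 100 input reads were excluded.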

Substance | amyloid nucleation score
YSQGDGL | -0.038 ± 0.65
RKYNGCSFQHYGLSVRTRSL | 2.37 ± 0.2
VDDWSADIMKGDRVLYS | inactive
CCCWRECDNKRSRTLHCEAW | 0.557 ± 0.66
GTSHWWIGMRFSEADLLLDW | 0.656 ± 0.41
RTDSGTMMCRVWAMYPESTS | 1.22 ± 0.41
YPKFYIWYYVYRLLALTCVY | -1.03 ± 0.37
DRLMLALGKGHGFEIGGPVL | 1.37 ± 0.39
VGSSEAFCYGLTDFKRENLA | inactive
ARFASIWVWTLGDCWRKCSY | -0.152 ± 0.76
VPRKILFCLLACCRMRQACS | 0.67 ± 0.33
TVSKDDMTALVSAIMASNRW | 1.06 ± 0.32
GGLMRTSPNS | -0.108 ± 1.1
MNCVGG | -0.389 ± 0.61
HRVYEFIKPLGPGAHTFVFT | 0.097 ± 1.1
TKRAIDWA | 0.669 ± 0.8
PRSGSYYTFF | -0.672 ± 1.1
LVRSIHMVPLTWFRSNSGMF | 4.13 ± 0.078
SSWSLCIYLINRKKAEYVVI | 0.462 ± 0.53
RQANFAQDPTSIVPVYMYLR | 2.35 ± 0.074
YIIPGLKFLS | inactive
VSGDRLPSLFTCVRLLI | 0.492 ± 0.41
IEQVRDECHYTDVATLIEMM | 0.675 ± 0.24
YADCVYDREPYTV | inactive
KNLDQYCCCFNALTLSVSRS | 7.473 ± 0.051

Substance | amyloid nucleation score
KMKAGAMWCGSRIASKSRRG | 1.51 ± 0.15
IKCLYV | -0.127 ± 1
GQLSVVKCRSY | 1.14 ± 0.29
LVIVVT | 3.1 ± 0.091
KWMFEVTVYGRWYVTHQAGL | 4.827 ± 0.041
VFIMGPTS | 3.96 ± 0.092
FDILDCDNLELGLYIFILDL | -1.14 ± 1
NNATLGQAFSRQ | 0.542 ± 0.17
SLTFSGMP | inactive
AVELGSGGALSRDKLQGQDG | 0.791 ± 0.74
NVVIRNRFWMNSGRARISAY | -0.428 ± 0.49
GVENKDRVSPNYVG | -0.424 ± 0.49
YSRGIWCNLDGHERCVSLST | -0.266 ± 1.1
NRLYSNRGQLNSLCISWFSG | inactive
SVDRNNTYLYRLKYAFWAMG | 6.644 ± 0.043
LERFEH | 2.01 ± 0.24
KSVFYIWFSHRVSVVAVRQL | 5.13 ± 0.093
MVSVKSCYYVSVSVLSRFHF | 0.065 ± 0.36
ETYLVFV | 0.072 ± 0.79
PITCMLQ | 0.398 ± 0.35
ISVDTRFGLNVCFEGCCAYR | 7.449 ± 0.062
VTQRWLAFERWKLPCSLPSH | 0.02 ± 0.79
SYVEHTMILDMRPTCHTLPH | 5.08 ± 0.11
RQSIEISYLYISFGHKYR | 5.98 ± 0.083
PVWGSTCWFDVTWVRFKLFW | 2.61 ± 0.11

Substance | amyloid nucleation score
ALFSIITVFSVRLVVWT | inactive
MTRYDDRFVQNRSSWLDNFD | -0.909 ± 0.48
RTFLDIIGQTLLYVLVTVLA | 0.548 ± 0.46
RMCVWHMLVIGVRGKTGATR | 3.01 ± 0.11
HYLAFVCIIFSLLRLITQPM | 2.53 ± 0.18
ILWWFRVTAHAWEDETGWMW | 0.098 ± 0.23
YISSKYYWSTVKCFAFNTFH | -0.594 ± 0.42
GTRLNYFNWIICGGETGCAA | -0.171 ± 1
WSKEFEIGSNHSKSNTRCGR | 0.244 ± 0.46
RTGRRSAFCTSVRRLNPDCL | 1.17 ± 0.41
YLLYGWYTMLALHLALREHI | -0.098 ± 0.79
RRSNLGNWFDV | 0.285 ± 1
GTMQFIVICNSDVFVSWLPN | 7.253 ± 0.071
RLCTVRSP | 1.55 ± 0.14
YHEIFF | -0.243 ± 0.4
ASHLVVTLVNKVKCNAVVRG | 0.758 ± 0.21
MDFYCRWVVWFQEGNF | 3.45 ± 0.058
VTKHLGEARKLVLDQRLHWG | 5.601 ± 0.047
TPSECRCWEEFHGWTHLLRL | 0.461 ± 0.48
CRINFTFDELVVVSQILTWL | 4.07 ± 0.058
IISPVGVRMAYL | 0.176 ± 0.37
KRWLKMWKRWQRRFMCGLLS | 0.472 ± 0.32
SYFWRYFM | 0.087 ± 0.79
KNYGYNIN | 1.83 ± 0.17
WYVDSLLWEILSALECCVFM | inactive

Substance | amyloid nucleation score
ERSIARSFRLAADFCSYSRR | inactive
ITSICGIIE | inactive
RTNVWASDI | -0.32 ± 0.39
LNTMPRK | 0.004 ± 1.1
FVHERASGIVMLRGISVRGP | -0.327 ± 0.48
FVTAKSYNVLISKGYRKELL | -0.716 ± 0.48
PVGEEVADVMLTFYKHHLVD | -0.913 ± 1.1
QNECKIMTLIFCLLRSKQYY | 0.005 ± 0.65
HRVAVTKYATRYIPLIMLNW | -0.354 ± 0.49
HLTSKVTGASIKVTKVNYLD | -1.25 ± 0.64
FLPCL | -0.739 ± 1
SCHLLL | -0.891 ± 1.1
HLSFGFRRNRR | 0.967 ± 0.2
LLYNGVILLECGWYMVSVAS | -0.071 ± 0.29
CFVSNRDYDF | 0.773 ± 0.42
CDCWYFKC | 5.42 ± 0.095
FYISKFLAWFIIPSGLFLGN | -1.72 ± 1.1
VIRYINSEDFRTGREFTRGV | -1.68 ± 0.78
AWVYSMRQVYQLNCLDQIMY | inactive
VQVVLNSETSSCASLRCMTY | 8.047 ± 0.029
TGHKFPLRGSMRVVLDFFSR | 3.09 ± 0.089
LEDGRTSLGMTQRYSIRNIC | -1.11 ± 0.55
NQTGSRYRVFGNFHVTACFV | 0.838 ± 0.18
VGWKTGDRPSEMSSSWDLNG | -0.093 ± 0.37
RKCSSVLRGHTVQDVHFFSA | -0.056 ± 0.56

Substance | amyloid nucleation score
NHVCRIVTMFGVPSRSN | inactive
SEYVDFYGFLGLVFTLRRSA | 0.43 ± 0.64
EVDLRKSGLSGRVKFYLMLW | 0.839 ± 0.57
ALYLMTFPSRDLIRACEEA | 0.678 ± 0.56
YNSVFLRNLRSVGWTKAPLW | -0.387 ± 0.76
SVYCSNNNTFDAFYVEWVFA | inactive
RTIAVSQWLASHGTVLVWPD | inactive
TIRSCVNF | 1.41 ± 0.1
RRNMVSWVSDDEQFSDKPLA | 0.121 ± 0.4
VEALSISMQLYYRSLVAG | -0.066 ± 1
VFDEVVVDTLKWWSCVSAGI | -0.484 ± 0.54
CNTRRLISMRI | -0.234 ± 0.65
VCRDYGVMSMRRDWLCRMSL | 0.391 ± 0.65
DIVANDKMMIIRVIMGTWCH | 0.927 ± 0.45
KSHSDSFDYW | 0.233 ± 0.74
SSFFVAPGSSLLLIRLLCSS | inactive
KCCVENCRWHGRLSSLLFAM | 0.576 ± 0.34
TTMIAVVRFTRD | 2.07 ± 0.29
GTSRLNVEGGLYCRGSIVDV | -0.299 ± 0.37
ITLSSS | 0.853 ± 0.2
CECETVSLTFEHWCTRGRLG | 5.156 ± 0.047
RRGIASILGHYRGTKMTGFD | 0.135 ± 0.56
LHGGVLFKTSTMAGFR | -0.501 ± 0.54
SMISM | 0.947 ± 0.3
KLHSVQLNTRVLIN | 0.219 ± 0.26

Substance | amyloid nucleation score
KLSLNVLGSRSERWLLLFSC | -0.291 ± 0.79
VYMCFSPVVNIMTVISFLAR | 5.23 ± 0.093
VIVWFWRFQNMNVAREFMAE | -0.297 ± 0.37
YNVQFTSEIVSE | 0.001 ± 0.35
TSRML | 0.67 ± 0.39
WTNFVGLSALFSMWV | -1.54 ± 1.1
LVMYGEDDD | -0.025 ± 1.1
MDGDFSINFMDPSTTCLLYE | inactive
SYGHDWVGKGKVGGIRLM | -0.904 ± 0.49
SKLNAHVLAVFRLNEMNNHQ | 3.48 ± 0.056
VSRKV | 0.476 ± 0.23
QPGSGFSVAPVQVKHNTVCR | 0.397 ± 0.33
GWCVHSKKDGKYCRSYTRQF | -0.136 ± 0.23
AVPGVC | 0.72 ± 0.26
TRLCRNLAASPGFLWTVYKS | inactive
CKLEQYRASWINLVTHLDEA | 0.073 ± 0.63
FKNAWFLATFNPTT | -0.104 ± 0.23
SSFQEC | -1.2 ± 0.62
PRSGVSAKQSCAWNVRDGDR | 0.566 ± 0.39
YKLAWARYGCIAVCTMLRFP | 0.102 ± 1.1
MLCCCTLQVGFAYIFLFL | 3.28 ± 0.15
RADGSFMKLLA | -0.628 ± 0.5
GCDTRHSPLVSNALGLAIAS | -0.052 ± 0.49
LYYLFSKFILRDETSSSQKK | inactive
LSTRLGNVSHFWLWTRSCMG | 1.04 ± 0.34

Substance | amyloid nucleation score
HCGMAYFH | -0.111 ± 0.32
PFLQLCREAIFCLSHDGMLK | -0.575 ± 0.28
NKSVQARDPTV | inactive
MAYSGKVLFHVSDIVVWGKL | 5.9 ± 0.086
ASGLLPDLDVEKEDRCGIYE | 0.859 ± 0.52
DMSNQFYELVAMILMNST | -0.823 ± 0.32
IPWNQRRKW | 0.671 ± 0.16
MRWRMCIIFNLVISY | 0.218 ± 1.1
DSFSSWYDFQFVWSVTVNRM | inactive
QVLCIVLDTSMIGTKACLGV | 0.325 ± 0.57
WSANVPQWLLTRPYFDSHHN | inactive
QSCWIFSGHSE | -1.03 ± 0.44
SRAKMVFNFGAWFSRVCKN | 2.42 ± 0.088
WYGFFTVLWSKTVRLDFNPM | -1.05 ± 0.54
SYCHCASGPFSLNPYSLLVC | 0.716 ± 0.66
RDSFRDTAYHELVYFTKNFR | inactive
LQRSHSWTQLPLCTSRLRLL | 0.294 ± 1.1
VHLTGSCHPNYSGVGKCMVI | 0.168 ± 0.49
FLNFIFELSSWMDF | -1.6 ± 1.1
GGSRTRSCQDRAHEGGK | 0.949 ± 0.74
RLRDDENIGIFMTF | -1.15 ± 1
